# Measurements as given in patent US20240059799A1 (Pfizer, published 2024).
# Numbering of substitutions follows the chain as printed.
# T1: recombinant human TL1A (human, UniProt O95150 71-251)
# T1 chain: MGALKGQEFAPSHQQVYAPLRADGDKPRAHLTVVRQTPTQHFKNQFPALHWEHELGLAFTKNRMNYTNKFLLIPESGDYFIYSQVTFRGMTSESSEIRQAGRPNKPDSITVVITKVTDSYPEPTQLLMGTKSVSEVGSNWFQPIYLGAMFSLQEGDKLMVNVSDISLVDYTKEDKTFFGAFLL
# T2: full-length human TL1A on CHO-K1 cells (human, UniProt O95150 1-251)
# T2 construct: whole, on cells; also called cells over-expressing human TL1A
# T2 sequence (looked up): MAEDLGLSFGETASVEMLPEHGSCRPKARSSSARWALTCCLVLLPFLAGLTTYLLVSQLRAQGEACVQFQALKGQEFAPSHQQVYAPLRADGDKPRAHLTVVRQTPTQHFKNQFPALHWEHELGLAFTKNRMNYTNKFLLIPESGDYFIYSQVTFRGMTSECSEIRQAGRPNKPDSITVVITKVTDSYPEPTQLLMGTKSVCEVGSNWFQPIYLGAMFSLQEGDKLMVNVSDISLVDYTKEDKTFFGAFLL
# B1: TL1A-0374 (bispecific antibody)
# heavy 1: QVQLVQSGAEVKKPGASVKVSCKASGYDYTYYGISWVRQAPGQGLEWMGWISTYNTGTHYAPSLQGRVTMTTDTSTSTAYMELRSLRSDDTAVYYCARESYYGSGAFRGGMDVWGQGTTVTVSSASTKGPSVFPLAPSSKSTSGGTAALGCLVKDYFPEPVTVSWNSGALTSGVHTFPAVLQSSGLYSLSSVVTVPSSSLGTQTYICNVNHKPSNTKVDKKVEPKSCDKTHTCPPCPAPEAAGAPSVFLFPPKPKDTLMISRTPEVTCVVVDVSHEDPEVKFNWYVDGVEVHNAKTKPREEQYNSTYRVVSVLTVLHQDWLNGKEYKCKVSNKALPAPIEKTISKAKGQPREPQVCTLPPSREEMTKNQVSLWCLVKGFYPSDIAVEWESNGQPENNYKTTPPVLDSDGSFFLYSKLTVDKSRWQQGNVFSCSVLHEALHSHYTQKSLSLSPGK
# heavy 2: not shown
# light: not shown
# notes: also called TL1A-0374 MBsAb; not shown: human IgG1 constant region with effector-minimizing, KiH and LS mutations
# B2: TL1A-0326 (antibody, human IgG1, kappa)
# heavy 1: B1 heavy 1
# heavy 2: EPKSSDKTHTCPPCPAPEAAGAPSVFLFPPKPKDTLMISRTPEVTCVVVDVSHEDPEVKFNWYVDGVEVHNAKTKPREEQYNSTYRVVSVLTVLHQDWLNGKEYKCKVSNKALPAPIEKTISKAKGQPREPQVYTLPPCREEMTKNQVSLSCAVKGFYPSDIAVEWESNGQPENNYKTTPPVLDSDGSFFLVSKLTVDKSRWQQGNVFSCSVLHEALHSHYTQKSLSLSPGK
# light: not shown
# notes: one-armed (monovalent) antibody derived from TL1A-0260
# B3: TL1A-0375 (bispecific antibody)
# heavy 1: B1 heavy 1
# heavy 2: not shown
# light: not shown
# notes: also called TL1A-0375 MBsAb; not shown: human IgG1 constant region with effector-minimizing, KiH and LS mutations
# B4: TL1A-0371 MBsAb (bispecific antibody)
# heavy 1: B1 heavy 1
# heavy 2: not shown
# light: not shown
# notes: not shown: human IgG1 constant region with hole KiH, effector-minimizing and LS mutations
# B5: TL1A-0374 MBsAb (bispecific antibody)
# heavy 1: B1 heavy 1
# heavy 2: not shown
# light: not shown
# notes: as for B4
# B6: TL1A-0375 MBsAb (bispecific antibody)
# heavy 1: B1 heavy 1
# heavy 2: not shown
# light: not shown
# notes: as for B4
# B7: TL1A-0373 MBsAb (bispecific antibody)
# heavy 1: B1 heavy 1
# heavy 2: not shown
# light: not shown
# notes: as for B4
# B8: TL1A-0368 MBsAb (bispecific antibody)
# heavy 1: B1 heavy 1
# heavy 2: QVQLVQSGAEVKKPGASVKVSCKASGYTFTSYGISWVRQAPGQGLEWMGWISAYNGNTNYAQKLQGRVTMTTDTSTSTAYMELRSLRSDDTAVYYCARESYYGSEAFRAGMDVWGQGTTVTVSS
# light: not shown
# notes: as for B4
# B9: [xTL1A]-0336 (antibody, human IgG1, kappa, V domains shown)
# VH: B8 heavy 2
# VL: DIQMTQSPSSLSASVGDRVTITCRASQSVSSYLAWYQQKPGKAPKLLIYDASNRATGVPSRFSGSGSGTDFTLTISSLQPEDFATYYCQQRSNWPWTFGQGTKVEIKR
# notes: bivalent disabled antibody, IgG1 effector-function-minimized/kappa
# B10: [xTL1A]-0363 (antibody, human IgG1, kappa, V domains shown)
# VH: not shown
# VL: B9 VL
# notes: as for B9
# B11: [xTL1A]-0352 (antibody, human IgG1, kappa, V domains shown)
# VH: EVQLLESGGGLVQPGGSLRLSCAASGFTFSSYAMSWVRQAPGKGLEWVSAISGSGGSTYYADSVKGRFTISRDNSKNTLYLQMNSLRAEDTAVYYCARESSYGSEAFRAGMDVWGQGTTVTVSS
# VL: B9 VL
# notes: as for B9
# B12: [xTL1A]-0347 (antibody, human IgG1, kappa, V domains shown)
# VH: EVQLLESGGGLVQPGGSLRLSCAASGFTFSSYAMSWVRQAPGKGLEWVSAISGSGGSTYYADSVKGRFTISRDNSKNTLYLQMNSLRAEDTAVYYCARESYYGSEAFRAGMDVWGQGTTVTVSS
# VL: B9 VL
# notes: as for B9
# B13: [xTL1A]-0358 (antibody, human IgG1, kappa, V domains shown)
# VH: not shown
# VL: B9 VL
# notes: as for B9
# B14: [xTL1A]-0349 (antibody, human IgG1, kappa, V domains shown)
# VH: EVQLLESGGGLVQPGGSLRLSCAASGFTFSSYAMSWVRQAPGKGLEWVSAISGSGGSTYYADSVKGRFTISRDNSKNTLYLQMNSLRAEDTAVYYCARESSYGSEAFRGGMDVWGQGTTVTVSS
# VL: B9 VL
# notes: as for B9
# B15: [xTL1A]-0338 (antibody, human IgG1, kappa, V domains shown)
# VH: B8 heavy 2 with Y101S, A109G
# VL: B9 VL
# notes: as for B9
# Target: T1, recombinant human TL1A
# Test: cell-based or functional assay
row,NFκB Bioassay IC50 [nM],Binder
1,1.49,B1
2,1.28,B2
3,1.35,B3

# Target: T3, human serum albumin (human, UniProt P02768 25-609)
# T3 construct: also called HSA
# Test: direct binding ELISA on plate-coated HSA (1 ug/mL), anti-human IgG-Fc HRP, OD450
# Method: (§1) For the direct binding ELISA method to HSA or BSA, 96-well high binding plates (Corning, product number 3590) were coated with 1 μg/mL recombinant HSA or BSA in 100 μL/well in PBS overnight at 4° C. Plates were then blocked in PBS+0.02% casein solution and washed with PBS+0.05% Tween-20 following standard ELISA protocol. […] Plates were washed with PBS+0.05% Tween-20 following standard ELISA protocol, and goat anti-human IgG-Fc HRP conjugated secondary antibody (Pierce, #31413) diluted to 1:10,000 in assay buffer was added to plates and incubated for 1 hour at room temperature. Next, the plates were washed with PBS+0.05% Tween-20 following standard ELISA protocol, and then TMB substrate (BioFX Laboratories, catalog number TMBW-0100-01) was added to plates.
# (§2) Reactions were stopped after approximately 5 minutes by adding 0.18 M ortho-phosphoric acid to each well and absorbance was read at 450 nm. […] For this method, samples diluted to 0.3 mg/mL were dispensed into the sample tray of a MicroCal VP-Capillary DSC with Autosampler (Malvern Instruments, Inc.), equilibrated for 5 minutes at 10° C. and then scanned up to 110° C. at a rate of 100° C. per/hour. A filtering period of 16 seconds was selected. Raw data was baseline corrected and the protein concentration was normalized. Origin Software 7.0 (Origin Lab Corporation, Northampton, MA) was used to fit the data to an MN2-State Model with an appropriate number of transitions.
row,binding result,Binder
1,no binding (tested: 1e-6 M),B1
2,no binding (tested: 1e-6 M),B2
3,no binding (tested: 1e-6 M),B3

# Target: T4, bovine serum albumin (bovine, UniProt P02769 25-607)
# T4 construct: also called BSA
# Test: direct binding ELISA on coated BSA
# Method: as §1, §2
# T4 sequence (P02769 25-607 limits assumed): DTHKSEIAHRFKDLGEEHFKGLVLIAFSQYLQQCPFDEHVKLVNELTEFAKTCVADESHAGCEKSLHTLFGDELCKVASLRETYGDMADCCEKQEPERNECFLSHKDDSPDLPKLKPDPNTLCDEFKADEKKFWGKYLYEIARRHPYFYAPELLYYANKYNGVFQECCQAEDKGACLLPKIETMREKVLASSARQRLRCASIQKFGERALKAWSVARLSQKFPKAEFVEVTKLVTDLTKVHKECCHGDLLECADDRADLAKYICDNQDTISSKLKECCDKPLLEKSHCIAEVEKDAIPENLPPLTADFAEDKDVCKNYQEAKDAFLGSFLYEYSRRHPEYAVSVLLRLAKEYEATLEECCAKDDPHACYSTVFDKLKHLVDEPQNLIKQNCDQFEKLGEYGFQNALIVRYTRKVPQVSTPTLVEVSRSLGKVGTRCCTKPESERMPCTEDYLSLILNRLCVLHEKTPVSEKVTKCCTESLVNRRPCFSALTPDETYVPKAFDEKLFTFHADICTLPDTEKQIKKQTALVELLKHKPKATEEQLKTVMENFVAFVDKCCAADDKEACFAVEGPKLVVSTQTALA
row,binding result,Binder
1,no binding (tested: 0.5-1000 nM),B4
2,no binding (tested: 0.5-1000 nM),B5
3,no binding (tested: 0.5-1000 nM),B6
4,no binding (tested: 0.5-1000 nM),B7
5,no binding (tested: 0.5-1000 nM),B8

# Target: T4, bovine serum albumin
# Test: direct binding ELISA on plate-coated BSA (1 ug/mL), anti-human IgG-Fc HRP, OD450
# Method: as §1, §2
row,binding result,Binder
1,no binding (tested: 1e-6 M),B1
2,no binding (tested: 1e-6 M),B2
3,no binding (tested: 1e-6 M),B3

# Target: T2, full-length human TL1A on CHO-K1 cells
# Test: flow cytometry on CHO-K1 cells stably expressing full-length human TL1A, PE anti-human IgG, median fluorescent intensity
# Method: A cell binding assay was performed to examine if the panel of [xTL1A] bivalent antibody variants could bind to human TL1A over-expressed on the cell surface. […] [xTL1A] bivalent antibody variants were incubated with cells on ice for 30-60 minutes at a concentration of either 1 μg/mL or 20 μg/mL. Cells were pelleted by centrifugation at 1500 RPM for 5 minutes at 4° C. and supernatant was discarded by aspiration. The cells were washed three times with DPBS with 4% FBS buffer as described. Cells were resuspended in 100 μL of PE-anti-human IgG (Life technologies Catalog number H10104) diluted 1:500 in DPBS with 4% FBS buffer and incubated on ice for 15 minutes. Cells were washed three times as described and resuspended in 200 μL of DPBS with 4% FBS buffer, then run on a flow cytometry instrument.
row,binding result,Binder
1,no binding (tested: 20 ug/mL),B9
2,no binding (tested: 20 ug/mL),B10
3,no binding (tested: 20 ug/mL),B11
4,no binding (tested: 20 ug/mL),B12
5,no binding (tested: 20 ug/mL),B13
6,no binding (tested: 20 ug/mL),B14
7,no binding (tested: 20 ug/mL),B15

# Target: T3, human serum albumin
# Test: direct binding ELISA on coated HSA
# Method: as §1, §2
row,binding result,Binder
1,no binding (tested: 0.5-1000 nM),B4
2,no binding (tested: 0.5-1000 nM),B5
3,no binding (tested: 0.5-1000 nM),B6
4,no binding (tested: 0.5-1000 nM),B7
5,no binding (tested: 0.5-1000 nM),B8

# Target: T1, recombinant human TL1A
# Test: SPR, recombinant human TL1A
Kd [nM],koff [s⁻¹],kon [M⁻¹ s⁻¹],Binder
0.268,5.59e-05,209000,B1
0.292,5.84e-05,200000,B2
0.232,4.9e-05,211000,B3

# Target: T1, recombinant human TL1A
# Test: direct binding ELISA on plate-coated recombinant human TL1A (1 ug/mL), anti-human IgG-Fc HRP, OD450
# Method: For the direct binding ELISA, 96-well high binding plates (Corning, product number 3590) were coated with 1 μg/mL recombinant TL1A in 100 μL/well in PBS overnight at 4° C. Plates were then blocked in PBS+0.02% casein solution and washed with PBS+0.05% Tween-20 following standard ELISA protocol. […] Plates were washed with PBS+0.05% Tween-20 following a standard ELISA protocol, and goat anti-human IgG-Fc HRP conjugated secondary antibody (Pierce, catalog number 31413) diluted to 1:10,000 in assay buffer was added to plates and incubated for 1 hour at room temperature. Next, the plates were washed with PBS+0.05% Tween-20 following a standard ELISA protocol, and then TMB substrate (BioFX Laboratories, catalog number TMBW-0100-01) was added to the plates. Reactions were stopped after approximately 5 minutes by adding 0.18 M ortho-phosphoric acid to each well and absorbance was read at 450 nm.
row,binding result,Binder
1,no binding (tested: 33.3 nM),B9
2,no binding (tested: 33.3 nM),B10
3,no binding (tested: 33.3 nM),B11
4,no binding (tested: 33.3 nM),B12
5,no binding (tested: 33.3 nM),B13
6,no binding (tested: 33.3 nM),B14
7,no binding (tested: 33.3 nM),B15
